Reference: PMC7256013, “Preclinical evaluation of cationic DOTA-triarginine-lipid conjugates for theranostic liquid brachytherapy” (Nanotheranostics, 2020)
Residues, ends and D or L forms follow the SMILES beside them. *: point of attachment. DOTA = O=C(O)CN1CCN(CC(=O)O)CCN(CC(=O)*)CCN(CC(=O)O)CC1; Stearoyl = CCCCCCCCCCCCCCCCCC(=O)*

What was measured:
in vivo [1] = details: female, Balb/C, mouse, total radioactivity
Method: (§1) Mice were injected intratumorally with ^64Cu-compounds in concentrations of 40 MBq/mL. During the scan procedures, mice were anaesthetized using 3-4 % sevoflurane (Abbott Scandinavia AB, Sweden) mixed with 35% O2 and 65% medical grade air and placed on heating pads. Two mice were positioned side-by-side, separated by a 6 mm polystyrene block for PET/CT imaging using Inveon® small animal PET/CT system with CT based PET image attenuation (Siemens Medical Systems, Malvern, PA, USA). The protocol included a 12-minute PET scan, followed by a CT scan. Mice were fixed on a bed inside the scanner with the syringe placed and the needle fixed centrally in the tumor and ready for injection. Upon initiation of the first scan, intratumoral injections were done manually over 30 seconds, to investigate the initial dynamics of the tracer diffusion. Following this, two further scans were included; at six hours (5 minutes scan time) and 24 hours (12 minutes scan time) after injection. Reconstruction of the PET scans were performed using maximum a posteriori (MAP) reconstruction algorithm (voxel size: 0.815 x 0.815 x 0.796 mm; resolution (FWHM) 1.2 mm). The injection scan was reconstructed in 4 x 30 second and 10 x 60 second time frames to observe the dynamics of tracer diffusion. The two last time points were reconstructed in a single time frame.
(§2) Image analysis was performed using commercially available Inveon software (Siemens Medical Systems, Malvern, PA, USA). Regions of interest (ROIs) were manually drawn based on the co-registered PET/CT images. The following ROIs were constructed; tumors (complete volume delineated), liver, spleen, kidney, bladder, and blood. Blood activity was estimated from a constructed ROI covering the left ventricular lumen of the heart. ROIs in the left ventricle and abdominal aorta were subsequently segmented to only include the voxels displaying above 80% of maximum activity with the original ROI. From the obtained uptake values all data was calculated into %ID/g for each organ and as %ID in tumors by adjusting for CT based tumor volume. Furthermore, voxel values from tumor ROIs were used to generate histograms for substance diffusion over time in the tumor region.
(§3) Note that the first point in each plot represents the percentage of voxels with radioactivity concentrations lower than 1.6 %ID/g. These voxels are considered empty, meaning that the corresponding tumor region is non-radioactive.

[2] = mouse, in vivo
Method: as §1, §2, §3

in vivo [3] = details: female, Balb/C, mouse, total radioactivity; remark: listed apart in the source
Method: CT26 wildtype cells (murine colon carcinoma, ATCC, Virginia, US) were cultured RPMI (Roswell Park Memorial Institute) medium supplemented with 10 % heat-inactivated Fetal Calf Serum (FCS) and 1 % Penicillin-Streptomycin (Invitrogen, Carlsbad, CA., US) retained in 5 % CO2 incubator at 37 °C. Immunocompetent female Balb/C mice (Charles River, Wilmington, MA., USA) were inoculated with tumor cells after one week of adaptation. All 20 mice included were inoculated subcutaneously with 3 x 10^5 CT26 wildtype cells in 100 µL medium on the right flank and hereafter monitored for weight and tumor size continuously for study purposes and to monitor the health of the mice. Tumor sizes were calculated from the formula of 0.52 x lenght^2 x width, as measured by external caliper. Animals were included in the study when tumors were approximately 400 mm^3.
as §1, §2

Question: With `CCCCCCCCCCCCCCCCCC(=O)N[C@@H](CCCNC(=N)N)C(=O)N[C@@H](CCCNC(=N)N)C(=O)N[C@@H](CCCNC(=N)N)C(=O)N[C@@H](CCCCNC(=O)CN1CCN(CC(=O)O)CCN(CC(=O)O)CCN(CC(=O)O)CC1)C(N)=O` [64Cu-D3R-C18, metal not drawn] (Stearoyl-RRRK(DOTA)-NH2) as the molecule, how does the tissue uptake at 5 min (in vivo [1]) read?
Answer: < 10 %ID/g

Question: And the “range of voxel radioactivities in tumor” value [2]?
Answer: 0-500 %ID/g

Question: What about the tissue uptake at 15 s (in vivo [3]) of the same molecule?
Answer: 80 ± 66 %ID/g

Question: And the tissue uptake at 45 s (in vivo [3])?
Answer: 171 ± 96 %ID/g

Question: And the tissue uptake at 75 s (in vivo [3])?
Answer: 230 ± 58 %ID/g

Question: And the tissue uptake at 105 s (in vivo [3])?
Answer: 241 ± 63 %ID/g

Question: And the tissue uptake at 2.5 min (in vivo [3])?
Answer: 241 ± 66 %ID/g

Question: And the tissue uptake at 3.5 min (in vivo [3])?
Answer: 240 ± 68 %ID/g

Question: What about the tissue uptake at 0.075 h (in vivo [3]) of the same molecule?
Answer: 241 ± 69 %ID/g

Question: And the tissue uptake at 5.5 min (in vivo [3])?
Answer: 240 ± 70 %ID/g

Question: And the tissue uptake at 6.5 min (in vivo [3])?
Answer: 240 ± 70 %ID/g

Question: What about the tissue uptake at 0.125 h (in vivo [3]) of the same molecule?
Answer: 240 ± 70 %ID/g

Question: What about the tissue uptake at 8.5 min (in vivo [3]) of the same molecule?
Answer: 239 ± 69 %ID/g

Question: What about the tissue uptake at 9.5 min (in vivo [3]) of the same molecule?
Answer: 238 ± 70 %ID/g

Question: And the tissue uptake at 0.175 h (in vivo [3])?
Answer: 238 ± 70 %ID/g

Question: What about the tissue uptake at 11.5 min (in vivo [3]) of the same molecule?
Answer: 236 ± 70 %ID/g

Question: What about the tissue uptake at 6 h (in vivo [3]) of the same molecule?
Answer: 49 ± 17 %ID/g

Question: And the tissue uptake at 24 h (in vivo [3])?
Answer: 23 ± 7 %ID/g

Question: What about the tissue uptake dose at 0.2 h (in vivo [3]) of the same molecule?
Answer: 85 ± 11 %ID
